Results published in CN101696242A.

Target: CVS-11
Experiment: cell-based or functional assay

B1: 人源抗狂犬病毒中和抗体Fab (Fab, V domains shown)
VH: ELLESGGGLVQPGGSLRLSCAASGFTFSSYAMSWVRQAPGKGLEWVSSINRSGDITTYADSVKGRFTISRDNSKNTLYLQMNSLRAEDTAVYYCAKKTRRFDYWGQGTLVTVSS
VL: ESALTQPRSVSGSPGQSVTISCTGTSSDIGGYNFVSWYQQHPGKAPKLMIYDATKRPSGVPDRFSGSKSGNTASLTISGLQAEDEADYYCCSYAGDYTPGVVFGGGTKLTVLG
With B1 the 中和效价 (狂犬病荧光抗体病毒中和试验 FAVN, BHK-21细胞) was 10.3 IU/mL.
